Source: doi:10.1101/2024.01.09.574928
Like-named read-outs stand apart in the source and are kept apart here.

T1: SCAF8-CID (human, UniProt Q9UPN6 1-139)
T1 sequence: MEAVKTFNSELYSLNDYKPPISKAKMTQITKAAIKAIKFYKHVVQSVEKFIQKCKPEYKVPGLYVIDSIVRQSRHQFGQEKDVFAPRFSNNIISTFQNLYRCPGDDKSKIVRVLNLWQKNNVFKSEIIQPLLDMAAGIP

T2: SCAF4-CID (human, UniProt O95104 1-139)
T2 sequence: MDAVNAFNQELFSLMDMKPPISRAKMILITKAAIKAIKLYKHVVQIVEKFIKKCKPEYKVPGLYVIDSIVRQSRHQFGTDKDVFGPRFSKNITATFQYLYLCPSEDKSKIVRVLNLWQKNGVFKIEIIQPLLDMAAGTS

T3: SCAF4-CID R112A (human, UniProt O95104 1-139, R112A)
T3 sequence: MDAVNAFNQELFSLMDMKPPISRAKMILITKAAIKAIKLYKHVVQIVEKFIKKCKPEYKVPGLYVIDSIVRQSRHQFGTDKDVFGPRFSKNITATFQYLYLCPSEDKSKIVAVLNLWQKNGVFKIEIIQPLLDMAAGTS

T4: SCAF4-CID R71A (human, UniProt O95104 1-139, R71A)
T4 sequence: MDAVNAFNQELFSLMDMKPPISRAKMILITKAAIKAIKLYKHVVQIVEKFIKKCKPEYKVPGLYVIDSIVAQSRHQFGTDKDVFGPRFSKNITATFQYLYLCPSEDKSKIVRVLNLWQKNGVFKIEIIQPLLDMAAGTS

T5: SCAF4-CID R21A (human, UniProt O95104 1-139, R23A)
T5 sequence: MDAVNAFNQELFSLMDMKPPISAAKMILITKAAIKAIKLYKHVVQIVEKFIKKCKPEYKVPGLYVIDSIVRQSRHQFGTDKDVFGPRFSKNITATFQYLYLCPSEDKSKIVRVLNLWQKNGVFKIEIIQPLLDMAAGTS


How the values were obtained:
SCAF8-CID [1] = molecular target: T1, SCAF8-CID; experiment: SPR
SCAF4-CID [2] = molecular target: T2, SCAF4-CID; experiment: SPR
SCAF4-CID R112A = molecular target: T3, SCAF4-CID R112A; experiment: fluorescence polarization
SCAF4-CID [3] = molecular target: T2, SCAF4-CID; experiment: fluorescence polarization
SCAF4-CID R71A = molecular target: T4, SCAF4-CID R71A; experiment: fluorescence polarization
SCAF4-CID R21A = molecular target: T5, SCAF4-CID R21A; experiment: fluorescence polarization
SCAF4-CID [4] = molecular target: T2, SCAF4-CID; experiment: competition FP
SCAF8-CID [5] = molecular target: T1, SCAF8-CID; experiment: competition FP
SCAF4-CID [6] = molecular target: T2, SCAF4-CID; experiment: competition FP; remark: listed apart in the source
SCAF8-CID [7] = molecular target: T1, SCAF8-CID; experiment: competition FP; remark: listed apart in the source
SCAF8-CID [8] = molecular target: T1, SCAF8-CID; experiment: SPR; remark: listed apart in the source
WDR5 [9] = molecular target: T6, WDR5 (UniProt P61964 22-334); experiment: competition FP
WDR5 [10] = molecular target: T6, WDR5; experiment: SPR
WDR5 L240K = WDR5 L240K (UniProt P61964 22-334, L240K); experiment: fluorescence polarization
WDR5 [11] = molecular target: T6, WDR5; experiment: fluorescence polarization

| Binder | Kd (SCAF8-CID [1]) [nM] | Kd (SCAF4-CID [2]) [nM] | IC50 (SCAF4-CID [6]) [nM] | IC50 (SCAF8-CID [7]) [nM] | further results |
| --- | --- | --- | --- | --- | --- |
| GTGGG (ssDNA) [SCAF4_LS (D2_5nt)] | 76.4 ± 7.33 | 140 ± 40.1 |  |  | Kd (SCAF4-CID R112A): 672 ± 171 nM; Kd (SCAF4-CID [3]): 189 ± 40.1 nM; Kd (SCAF4-CID R71A): 786 ± 491 nM; Kd (SCAF4-CID R21A): 416 ± 39.5 nM; IC50 (SCAF4-CID [4]): 2750 ± 682 nM; IC50 (SCAF8-CID [5]): 1960 ± 240 nM |
| TGGTGGGA (ssDNA) [D1_8nt] |  |  | 1270 ± 864 |  |  |
| GGGGTGGGGAG (ssDNA) [SRiApt-1 (SCAF4_F3_11nt)] |  | 58.4 ± 5.8 | 832 ± 303 | 1500 ± 690 | Kd (SCAF8-CID [8]): 56.3 ± 7.42 nM |
| CAGGTGGGTTC (ssDNA) [SRiApt-2 (F7_11nt_B)] | 90.5 ± 25.8 | 73.8 ± 30.8 | 400 ± 143 | 2690 ± 1430 |  |
| TTAAAGGGGTGGGGAGTCAT (ssDNA) [SRiApt-3] | 69.9 ± 14 | 22.7 ± 1 | 285 ± 26.6 | 291 ± 19.7 |  |
| GGACCGGACC (ssDNA) [bivalent WDR5 lead] |  |  |  |  | IC50 (WDR5 [9]): 8500 ± 4250 nM |
| GGGGGCTGGACCCCTCAACT (structured_DNA) [WMiApt-1] |  |  |  |  | Kd (WDR5 [10]): 138 ± 86.7 nM; IC50 (WDR5 [9]): 431 ± 134 nM; binding result (WDR5 L240K): binds; Kd (WDR5 [11]): 797 ± 95.2 nM |
| GGGTGGGA (ssDNA) [F1_8nt] |  | 88.6 ± 15.1 | 554 ± 106 |  |  |
| AGGTGGGT (ssDNA) [B2_8nt] |  | 297 ± 48.1 | 1280 ± 742 |  |  |
